Reference: the nanobody polyreactivity screen of Harvey et al. (2022)

test: yeast display, Sf9 membrane polyspecificity reagent, FACS + sequencing; frameworks hold sequencing errors
Method in brief: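 Sorting gates, low and high (top ~1%), were placed on anti-HA fluorescence to track expression and on streptavidin fluorescence to track reagent binding. A clone's polyreactivity label is taken from the gate it came out of. The reagent was 10% biotinylated, detergent-solubilized Sf9 membrane, applied for 1 hour at 4 °C to galactose-induced yeast display cells.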

Sequence	polyreactivity (PSR sort gate)
QVQLEESGGGLVQAGGSLRLSCAASGFIFGRNAMGWYRQAPGKERELVAAITRSGGSTYYADSVKGRFTISRDNAKNTVYLQMNSLKPEDTAVYYCAKGVFTWGVFRVGIRDDYWGQGTQVTVSS	high polyreactivity
QVQLEESGGGLVQAGGSLRLSCAASGFTFNKYAMGWYRQAPGKERELVDAISSSGGSTRYADSVKGRFKISRDNAKNTVYLQMNSLKPEDSAVYYCAVYVTRDSGWWLYDYWGQGTQVTVAS	high polyreactivity
QVQLEESGGGLVQAGGSLRLSCAASGFTFRYYAMGWYRQAPGKERELVASISSSGGSTNYADSVKGRFTISRDNAKNTVYLQMNSLKPEDTAVYYCAVPPYTWLYDYWGQGTQVTVSS	high polyreactivity
QVQLEESGGGLVQAGGSLRLSCAASGFTFSYYAMGWYRQATGKERELVAAITSSAGSTYYADSVKGRFTISRDYAKNSFYLQMTSLKPEDTEVYYCYAVYSKLNGGYDYWGQGTQVTVSS	low polyreactivity
QVQLEESGGGLVQAGGSLRLSCAASGFTFVYYAMGRYRQATGKERELVAAISWRDGDTYYADSVKGRFTISRDNAKNTVYVQMNSLKPEDTAVYYCAADYSYFKDDDWGQGTQVTVSS	low polyreactivity
QVQLEESGGGLVQAGGSLRLSCAASGFTFWLYAMGWYRQAPGKEREFVAAISTSGGSTYADSVKGRFTISRDNAKNTVYLQMNSLKPEDTAVYYCNAGYLLYYDYHLFYWGQGTQVTVSS	low polyreactivity
QVQLEESGGGLVQAGGSLRLSCAASGFTFYIYALGWYRQAPGKERELVAAISSSGTRTYYADSVKGRFTISRDNAKNTVYLQMNSLKPEDTAVYYCAATRYSWHNRVSRRHRYDYWGQGTQVTVSS	high polyreactivity
QVQLEESGGGLVQAGGSLRLSCAASGFTIRLYARGWYRQAPGKVRELVAAITSGGSTYADSVKGRFTISRDNAKNTVYLQMNSLKPEDTAVNYCAAVSRYWAKYEYWGQGTQVTVSS	high polyreactivity
QVQLEESGGGLVQAGGSLRLSCAASGFTSYYAMGWYRQAPGKERELVAAIRYSTVSTYYADAVKGRFTISRDNAKNTVYLQMNIMKPEDTAVYYCAAQRRPYLPGHYYYWGQGTQVTVSS	high polyreactivity
QVQLEESGGGLVQAGGSLRLSCAASGGILVFYALGWYRQAPGTERELVAAINVSGRSTYYADSVKGRFTISRDNAKNTVYVQMNSLKPEDTAVYYCAADYYYVWYDYWGQGTQVTVSS	low polyreactivity
QVQLEESGGGLVQAGGSLRLSCAASGIIFKLYAMGWYRQAPGKERELVAAITYRGGTTYYADSVKGRFTISRDNAKNTDYLQMNSLKPEDTAVYYCAVAVTSYSSKKLYYWGQGTQVTVSS	low polyreactivity
QVQLEESGGGLVQAGGSLRLSCAASGINLTGYTMGWYRKATGKERQLVAAITYGGTSTYYADSVKGRFTISRDNAKNTVYLQMNSLKPEDTAVYYCAALYRGPRYGYWGQGTQVTVSS	high polyreactivity
QVQLEESGGGLVQAGGSLRLSCAASGISFDTYAMGRNRPAPGKERELVAAMSSSGSTNYADSVKGRFTISRDNAKKTVYLQMNSLKPEDTADYYCATDYWPGTGGTYDYWGQGTQVTVSS	low polyreactivity
QVQLEESGGGLVQAGGSLRLSCAASGITFEYYAMVWYRQAPGKERELVAANDTGGSTNYADSVKGRFTISRDNAKNTVYFLMNSLKPEDTEVYYCAADWSWWDGEDYHFEYDYWGQGTQVTVSS	low polyreactivity
QVQLEESGGGLVQAGGSLRLSCAASGITFLNYAMGWYRQAPGKERELVAAISWSGGRTYYADSVKGRFTISRDNAKNTVYLQMNSLKPEDTAVYYCAVRGSWYSEHNYWGQGTQVTVSS	high polyreactivity
QVQLEESGGGLVQAGGSLRLSCAASGITFYYYAMGWYRRAPGKERELVAANSSGGSKSYADSVKGRFTISRDNAKNNVYLQMNSLKPDDSAVYYCAADLPYLWYPFYYWGQGTQVTVSS	high polyreactivity

Sequence	polyreactivity (PSR sort gate)
QVQLEESGGGLVQAGGSLRLSCAASGLIFIQYAMVWNRQAPGKERELVAAISGSGVTTYYADSVNGSFTISRDKAMNTVYLQMTSLKPEDTAVYYCNAALRWKYDWGQGTQVTVSS	low polyreactivity
QVQLEESGGGLVQAGGSLRLSCAASGLIFVHYTMGWYRQAPGKERELVAAISRSGGSTSYADSVKGRFTISRDTAKNSVYLQMNSLKPEDTAVYYCAAVGSRSGLTPYEYWGQGTQVTVSS	high polyreactivity
QVQLEESGGGLVQAGGSLRLSCAASGLILRWNAMGWYRQAPGKERELVATINRGGSTNYADSVKGRFTISRDNAKNTVYLQMNSLKPEDTAVYYCYKARTSQYHHTYWRTYGYWGPGTQVTVSS	low polyreactivity
QVQLEESGGGLVQAGGSLRLSCAASGLTFTPNAMGWYRPAPGKEWELVAAITNGGSTNYADSVKGCFTISRDNAKNTVYLQMNSLKPEDTAVYYCAAECSYWFRRYGYWGQGTQVTVSS	high polyreactivity
QVQLEESGGGLVQAGGSLRLSCAASGLTFYSYAMGWYRQAPGKERELVAGINYSGDSTHYADSVKGRFTISRDNAKNTVYLQMNSLKPEDTAVYYCASQTFVYRKELLSRYEYWGQGTQVTVSS	high polyreactivity
QVQLEESGGGLVQAGGSLRLSCAASGNIFRDYAMGWYRQAPGKERELVAAISWSGGSTYYADSVKGRFTISRDNAKNTVYLQMNSLKPEDTAVYYCAARKPYSYNYWGQGTQVTVSS	high polyreactivity
QVQLEESGGGLVQAGGSLRLSCAASGRIFATNAMGWYRQAPGKERELVATITRSAGRTYYADSVKGRFTISRDNAKNTVYLHMNSLKPEDTAVYYCASSYWDTEPVYREYDYWGQGTQVTVSS	low polyreactivity
QVQLEESGGGLVQAGGSLRLSCAASGRIFAYYAMGWYRQAPGKERELVAAIRGSGGSTYYADSVKGRFTISRDNAKNTVYLQMNSLKPEDTAVYYCAARTQPKKFYYWGQGTQVTVSS	high polyreactivity
QVQLEESGGGLVQAGGSLRLSCAASGRIFFKYSMGWYRQAPGKERELVATISSSTGSTYYADSVKGRFTISRDNAKNTDYLQMNSLKPEDTAVYYCNARVRTQQRWVDYWGQGTQVTVSS	high polyreactivity
QVQLEESGGGLVQAGGSLRLSCAASGRIFIAYTMGWYRQAPGKERELVAAITWNGGSTYYADSVKGRFTISRDNAMNTVYLQMNSLKPEDTAVYYWVLVSRPGPKPAREMDYWGQGTQVTVSS	low polyreactivity
QVQLEESGGGLVQAGGSLRLSCAASGRIFLWYAMGWYRQAPGKERELVAAISSNGGSTRYADSVKGRFTISRDNAKNTVYLQMNSLKPEDTALYYCNADVHWNRYPYGGNGYGYWGQGTQVTVSS	low polyreactivity
QVQLEESGGGLVQAGGSLRLSCAASGRIFLYKIMGSYREAPGQERDLVAAISWGTGSTYADSVKGRFTISRDNAINTVYLQIYRLKPEDTAVYYCDADSFMPPYYHWGQGTQVTVSS	low polyreactivity
QVQLEESGGGLVQAGGSLRLSCAASGRIFRYYTMGGYRQAPGKERELVDAISGSGGSTYYADSVKGRFTISRDNAKNTVYLQMNSLKPEDTSVYYCAAAHRYWGQGTQVTVSS	high polyreactivity
QVQLEESGGGLVQAGGSLRLSCAASGRIFSGYAMGWYRQAPGIERELVAAIDSVGDTYYADSVKVRFTISRDNAKNTVYLQMNSLKPEDTAVYYCAAERTVRMVLSPTDEMDYWGQGTQVNVSS	low polyreactivity
QVQLEESGGGLVQAGGSLRLSCAASGRIFTWYTMGWYRQAPGKEREFVAAITRSGTSTYYADSVKGRFTISRDNAKNTVYLQMNSLKPEDTAVYYCAAGKPRSKYWYDYWGQGTQVTVSS	high polyreactivity
QVQLEESGGGLVQAGGSLRLSCAASGRIFWYYDMGWYRQAPGKERELVAAISQRGGSTYYADSVKGRFTISRDNAKNTVYLQMNSLKAEDTAVYYCAKRNPYWATREYWGQGTQVTVSS	high polyreactivity
